Earlier results on one substance are cited in paper PMC5081098.

In this series the target is CCL21 (Homo sapiens) (UniProt O00585).

pKd: −log10 of the molar value.

Chain of UniProt O00585 (O00585 24-134): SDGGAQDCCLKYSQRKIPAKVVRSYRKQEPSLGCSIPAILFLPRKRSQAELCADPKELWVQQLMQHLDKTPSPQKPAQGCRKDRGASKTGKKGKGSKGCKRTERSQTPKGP

Regarding podoplanin (from UniProt Q86YL7), the negative logarithm of the Kd (pKd) was 7.15.

Broadly, the pKd is the negative decadic logarithm of the Kd, by convention in mol/L.
